Reference: patent US20080103095A1

Molecular target: firefly luciferase (firefly) [luciferase: P08659]
Assay: cell-based or functional assay

Chain of firefly luciferase (firefly) [luciferase: P08659] (P08659 whole entry): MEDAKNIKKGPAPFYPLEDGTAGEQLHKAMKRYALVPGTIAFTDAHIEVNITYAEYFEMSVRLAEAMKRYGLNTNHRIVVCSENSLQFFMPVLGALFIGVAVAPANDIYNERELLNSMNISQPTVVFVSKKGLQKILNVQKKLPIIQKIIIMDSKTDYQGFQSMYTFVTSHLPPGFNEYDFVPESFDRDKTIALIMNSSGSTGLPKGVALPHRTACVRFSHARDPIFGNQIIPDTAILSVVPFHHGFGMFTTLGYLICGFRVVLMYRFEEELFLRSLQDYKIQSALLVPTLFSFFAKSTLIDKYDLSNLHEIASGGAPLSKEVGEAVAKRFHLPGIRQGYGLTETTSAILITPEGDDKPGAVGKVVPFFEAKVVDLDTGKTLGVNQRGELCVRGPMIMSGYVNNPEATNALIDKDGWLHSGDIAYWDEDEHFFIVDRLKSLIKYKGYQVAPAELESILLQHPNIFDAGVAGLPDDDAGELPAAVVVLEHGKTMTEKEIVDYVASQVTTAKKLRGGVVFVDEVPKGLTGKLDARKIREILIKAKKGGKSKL

Substance | percent protein aggregation (light scattering, OD 320 nm, 43° C 30 min; luciferase heated alone = 100%) [%]
hsp110 as used in Examples 6, 8 and 10 (source and species not stated) | 20
grp170 as used in Examples 6 and 8 (source and species not stated) | 40
